Laboratory results published in patent publication US6448376.

Biological target: LexA-DP-1 (pLEX(HIS).DP-1: complete bacterial LexA protein fused to DP-1 residues 59 to 410) (bacterial; murine) (UniProt Q08639)
Assay: cell-based or functional assay

Sequence of UniProt Q08639 (Q08639 59-410): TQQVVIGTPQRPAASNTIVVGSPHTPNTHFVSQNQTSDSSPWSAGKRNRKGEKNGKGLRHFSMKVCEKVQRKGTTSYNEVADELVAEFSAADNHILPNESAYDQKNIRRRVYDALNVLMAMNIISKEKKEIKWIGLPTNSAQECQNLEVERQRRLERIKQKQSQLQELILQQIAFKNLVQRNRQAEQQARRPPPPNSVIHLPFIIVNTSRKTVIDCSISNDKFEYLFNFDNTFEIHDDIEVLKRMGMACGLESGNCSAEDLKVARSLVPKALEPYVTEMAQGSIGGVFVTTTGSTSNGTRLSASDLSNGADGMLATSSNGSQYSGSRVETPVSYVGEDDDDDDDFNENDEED

Substance: GAD-E2F-5 (pGAD.E2F-5: entire murine E2F-5 as a hybrid with the GAL4 activation domain 768-881) (from UniProt P04386 768-881)
- transcriptional activity of the E2F site reporter p4xWT CYC1 in yeast: > 6 fold
